4 sequences from the supplement of paper PMC5998384 can be followed below.

The subject of data set [1] is HeLa Kyoto. The experiment in a line: solubility in G1/S (NP-40 vs SDS abundance) (log2 ratio); higher = more soluble. The conditions noted are these: cell cycle stage: G1/S.
Data set [2] deals with HeLa Kyoto. The experiment in a line: melting temperature (median over replicates), in situ; higher = more thermally stable.
Data set [3] relates to HeLa Kyoto. Kind of data set: solubility change mitosis vs G1/S (difference of NP-40 vs SDS log2 ratios) (log2 ratio difference); higher = more soluble in mitosis.
Data set [4] concerns HeLa Kyoto. The experiment in a line: thermal stability score vs G1/S (z-score of summed log2 fold changes over temperatures); higher = more thermally stable than in G1/S.
The mark [5] stands for this setting: cell cycle stage: early G1 (4.5 h after nocodazole release).
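Throughout, for melting temperature (median over replicates), in situ: HeLa Kyoto cells synchronized by double thymidine or nocodazole block, proteins quantified by TMT10plex mass spectrometry, three independent biological replicates.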
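Throughout, for solubility change mitosis vs G1/S (difference of NP-40 vs SDS log2 ratios): synchronized HeLa Kyoto cells (double thymidine block for G1/S, nocodazole release for mitosis), protein amounts in NP-40 versus SDS lysates quantified by mass spectrometry, three biological replicates.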
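Throughout, for solubility in G1/S (NP-40 vs SDS abundance): HeLa Kyoto cells arrested at G1/S by double thymidine block, proteins quantified by TMT10plex mass spectrometry in mild NP-40 versus SDS extracts, three biological replicates.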
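Throughout, for thermal stability score vs G1/S (z-score of summed log2 fold changes over temperatures): synchronized HeLa Kyoto cells, proteins quantified by TMT10plex mass spectrometry, three biological replicates, mitosis taken 0.5 h after nocodazole release, G1/S directly after double thymidine block.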

In the case of “MESGQPARRIAMAPLLEYERQLVLELLDTDGLVVCARGLGADRLLYHFLQLHCHPACLVLVLNTQPAEEEYFINQLKIEGVEHLPRRVTNEITSNSRYEVYTQGGVIFATSRILVVDFLTDRIPSDLITGILVYRAHRIIESCQEAFILRLFRQKNKRGFIKAFTDNAVAFDTGFCHVERVMRNLFVRKLYLWPRFHVAVNSFLEQHKPEVVEIHVSMTPTMLAIQTAILDILNACLKELKCHNPSLEVEDLSLENAIGKPFDKTIRHYLDPLWHQLGAKTKSLVQDLKILRTLLQYLSQYDCVTFLNLLESLRATEKAFGQNSGWLFLDSSTSMFINARARVYHLPDAKMSKKEKISEKMEIKEGEETKKELVLESNPKWEALTEVLKEIEAENKESEALGGPGQVLICASDDRTCSQLRDYITLGAEAFLLRLYRKTFEKDSKAEEVWMKFRKEDSSKRIRKSHKRPKDPQNKERASTKERTLKKKKRKLTLTQMVGKPEELEEEGDVEEGYRREISSSPESCPEEIKHEEFDVNLSSDAAFGILKEPLTIIHPLLGCSDPYALTRVLHEVEPRYVVLYDAELTFVRQLEIYRASRPGKPLRVYFLIYGGSTEEQRYLTALRKEKEAFEKLIREKASMVVPEEREGRDETNLDLVRGTASADVSTDTRKAGGQEQNGTQQSIVVDMREFRSELPSLIHRRGIDIEPVTLEVGDYILTPEMCVERKSISDLIGSLNNGRLYSQCISMSRYYKRPVLLIEFDPSKPFSLTSRGALFQEISSNDISSKLTLLTLHFPRLRILWCPSPHATAELFEELKQSKPQPDAATALAITADSETLPESEKYNPGPQDFLLKMPGVNAKNCRSLMHHVKNIAELAALSQDELTSILGNAANAKQLYDFIHTSFAEVVSKGKGKK [ERCC4]”, the “solubility in G1/S (log2)” value in the data set with HeLa Kyoto [1] was -0.215. In addition, the results for the melting temperature with HeLa Kyoto [2] (cell cycle stage: G1/S) and in the data set on HeLa Kyoto [2] (cell cycle stage: mitosis) were 49.6 °C and 50.4 °C, respectively. Also, the “solubility change mitosis (log2)” value in the data set with HeLa Kyoto [3] is -0.274. The thermal stability score with HeLa Kyoto [4] (setting [5]) worked out at 0.278; in the data set with HeLa Kyoto [4] (cell cycle stage: mitosis), 0.608.
Regarding “MESMFSSPAEAALQRETGVPGLLTPLPDLDGVYELERVAGFVRDLGCERVALQFPDQLLGDAVAVAARLEETTGSKMFILGDTAYGSCCVDVLGAEQAGAQALIHFGPACLSPPARPLPVAFVLRQRSVALELCVKAFEAQNPDPKAPVVLLSEPACAHALEALATLLRPRYLDLLVSSPAFPQPVGSLSPEPMPLERFGRRFPLAPGRRLEEYGAFYVGGSKASPDPDLDPDLSRLLLGWAPGQPFSSCCPDTGKTQDEGARAGRLRARRRYLVERARDARVVGLLAGTLGVAQHREALAHLRNLTQAAGKRSYVLALGRPTPAKLANFPEVDVFVLLACPLGALAPQLSGSFFQPILAPCELEAACNPAWPPPGLAPHLTHYADLLPGSPFHVALPPPESELWETPDVSLITGDLRPPPAWKSSNDHGSLALTPRPQLELAESSPAASFLSSRSWQGLEPRLGQTPVTEAVSGRRGIAIAYEDEGSG [DPH2]”, in the data set on HeLa Kyoto [1], the “solubility in G1/S (log2)” value turned out to be 0.268. Also, the melting temperature turned out to be 53.9 °C in the data set with HeLa Kyoto [2] (cell cycle stage: G1/S) and 53.4 °C in the data set on HeLa Kyoto [2] (cell cycle stage: mitosis). Moreover, in the data set on HeLa Kyoto [3], the “solubility change mitosis (log2)” value is -0.0726. Also, the thermal stability score was -0.452 with HeLa Kyoto [4] (setting [5]) and -1.28 with HeLa Kyoto [4] (cell cycle stage: mitosis).
For the sequence “MESNKDEAERCISIALKAIQSNQPDRALRFLEKAQRLYPTPRVRALIESLNQKPQTAGDQPPPTDTTHATHRKAGGTDAPSANGEAGGESTKGYTAEQVAAVKRVKQCKDYYEILGVSRGASDEDLKKAYRRLALKFHPDKNHAPGATEAFKAIGTAYAVLSNPEKRKQYDQFGDDKSQAARHGHGHGDFHRGFEADISPEDLFNMFFGGGFPSSNVHVYSNGRMRYTYQQRQDRRDNQGDGGLGVFVQLMPILILILVSALSQLMVSSPPYSLSPRPSVGHIHRRVTDHLGVVYYVGDTFSEEYTGSSLKTVERNVEDDYIANLRNNCWKEKQQKEGLLYRARYFGDTDMYHRAQKMGTPSCSRLSEVQASLHG [DNAJB12]”, in the data set on HeLa Kyoto [1], the “solubility in G1/S (log2)” value is 0.104. Further, the melting temperature was 49.4 °C with HeLa Kyoto [2] (cell cycle stage: G1/S) and 50.4 °C in the data set with HeLa Kyoto [2] (cell cycle stage: mitosis). Besides, the “solubility change mitosis (log2)” value with HeLa Kyoto [3] was -0.00489. Further, the thermal stability score is 2.37 in the data set on HeLa Kyoto [4] (setting [5]) and 0.328 with HeLa Kyoto [4] (cell cycle stage: mitosis).
Regarding “MESSRGRPGPETDLLAVAEHQALVFGGGPGRTSSEPPAGLRVSGEEETENVGGANRHPRTSPKTSSCGVVHRPEREALENEPGPQGTLSGAGSRRGAPGAEHEPSLSSRHKNPAPPEGKPSSGRDCRRGGPGGGMDVEQQEEEDNDEEAAAGSRAGRSFSSRLQDSRSLDGLSEACGGAGSSGSAESGAGGGRRATISSPLELEGTVSRHGDLTHFVANNLQLKIRLSGAPPPPPSAPARPCPAPAPTPTPAIPPIDPEVLRDLERLSRELGGRVDRLLRGLGGAVQELTALSVGCIQTYRDAVDSLGEAVDMSIKGMYTLLARCEELERALQPVQGLARQVRDIRRTLEVLEALCK [C17ORF59]”, the “solubility in G1/S (log2)” value with HeLa Kyoto [1] was 0.166. The results for the melting temperature with HeLa Kyoto [2] (cell cycle stage: G1/S) and in the data set on HeLa Kyoto [2] (cell cycle stage: mitosis) were 53.5 °C and 53.8 °C, respectively. Also, in the data set with HeLa Kyoto [3], the “solubility change mitosis (log2)” value was -0.0139. Besides, the results for the thermal stability score in the data set with HeLa Kyoto [4] (setting [5]) and in the data set with HeLa Kyoto [4] (cell cycle stage: mitosis) were -2.61 and -1.39, respectively.
